Patent US20240294646A1

Key:
[1] = target: FcγRIIb, soluble extracellular domain (UniProt P31994); test: SPR (Biacore 4000, Protocol 2): antibody captured on immobilised HER2, soluble receptor as analyte
[2] = target: FcγRIIaR, soluble extracellular domain (UniProt P12318); test: as above
[3] = target: Soluble FcγRIIb extracellular domain with C-terminal 10×His tag (UniProt P31994); test: SPR (Biacore 4000), antibody captured on immobilised HER2, soluble receptor as analyte
[4] = target: Soluble FcγRIIaR extracellular domain with C-terminal 10×His tag (UniProt P12318); test: as above
Sequence of Soluble FcγRIIaR extracellular domain with C-terminal 10×His tag (P12318 other isoform, or with tags, fused parts or gaps): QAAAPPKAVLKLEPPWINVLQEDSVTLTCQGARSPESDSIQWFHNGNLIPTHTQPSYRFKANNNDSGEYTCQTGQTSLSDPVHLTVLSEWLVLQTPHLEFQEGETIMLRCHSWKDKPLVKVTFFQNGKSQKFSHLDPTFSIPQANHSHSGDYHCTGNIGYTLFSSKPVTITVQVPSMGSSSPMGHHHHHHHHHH

Sequence of Soluble FcγRIIb extracellular domain with C-terminal 10×His tag (P31994 other isoform, or with tags, fused parts or gaps): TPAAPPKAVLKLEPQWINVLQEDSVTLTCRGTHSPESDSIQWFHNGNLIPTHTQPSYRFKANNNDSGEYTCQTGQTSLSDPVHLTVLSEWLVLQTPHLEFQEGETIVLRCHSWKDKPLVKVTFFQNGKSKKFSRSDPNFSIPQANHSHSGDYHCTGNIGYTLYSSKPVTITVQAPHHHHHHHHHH
Sequence of FcγRIIaR, soluble extracellular domain (P12318 34-217): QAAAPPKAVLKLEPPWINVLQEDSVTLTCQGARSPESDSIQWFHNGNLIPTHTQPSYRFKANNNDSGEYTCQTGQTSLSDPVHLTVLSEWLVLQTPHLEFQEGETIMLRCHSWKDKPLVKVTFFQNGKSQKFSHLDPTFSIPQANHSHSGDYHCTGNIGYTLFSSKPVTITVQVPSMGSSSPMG
Sequence of FcγRIIb, soluble extracellular domain (P31994 43-217): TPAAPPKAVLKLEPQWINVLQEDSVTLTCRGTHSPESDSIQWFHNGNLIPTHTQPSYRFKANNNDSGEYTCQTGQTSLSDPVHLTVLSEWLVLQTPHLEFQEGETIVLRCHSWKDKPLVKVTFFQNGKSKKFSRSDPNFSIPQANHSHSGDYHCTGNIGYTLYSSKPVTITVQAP

Kd [1] [nM]	Kd [2] [nM]	Kd [3] [nM]	Kd [4] [nM]	Substance
26	77	–	–	Variant 26738 (A_P271Q_strat2), one-armed trastuzumab antibody with heterodimeric IgG1 Fc
–	70	–	–	Variant 26732 (A_P271I_strat2), one-armed trastuzumab antibody with heterodimeric IgG1 Fc
36	90	–	–	Variant 26737 (A_P271S_strat2), one-armed trastuzumab antibody with heterodimeric IgG1 Fc
22	68	–	–	Variant 26731 (A_P271L_strat2), one-armed trastuzumab antibody with heterodimeric IgG1 Fc
28	90	–	–	Variant 26739 (A_P271N_strat2), one-armed trastuzumab antibody with heterodimeric IgG1 Fc
88	180	–	–	Variant 26727 (A_D270P_strat2), one-armed trastuzumab antibody with heterodimeric IgG1 Fc
–	–	26	69	Variant 26718 (A_D270Y_strat2), one-armed trastuzumab antibody
–	–	27	78	Variant 26710 (A_E269P_strat2), one-armed trastuzumab antibody
13	42	–	–	Variant 26723 (A_D270E_strat2), one-armed trastuzumab antibody with heterodimeric IgG1 Fc
28	87	–	–	Variant 26721 (A_D270Q_strat2), one-armed trastuzumab antibody with heterodimeric IgG1 Fc
–	–	23	77	Variant 26707 (A_E269R_strat2), one-armed trastuzumab antibody

Continued, substance first:

Substance	Kd [1] [nM]	Kd [2] [nM]	Kd [3] [nM]	Kd [4] [nM]
Variant 26736 (A_P271T_strat2), one-armed trastuzumab antibody with heterodimeric IgG1 Fc	47	120	–	–
Variant 26724 (A_D270R_strat2), one-armed trastuzumab antibody with heterodimeric IgG1 Fc	89	–	–	–
Variant 26730 (A_P271V_strat2), one-armed trastuzumab antibody with heterodimeric IgG1 Fc	27	85	–	–
Variant 26703 (A_E269S_strat2), one-armed trastuzumab antibody	–	–	24	60
Variant 26706 (A_E269D_strat2), one-armed trastuzumab antibody	–	–	20	61
Variant 26733 (A_P271F_strat2), one-armed trastuzumab antibody with heterodimeric IgG1 Fc	31	87	–	–
Variant 26709 (A_E269H_strat2), one-armed trastuzumab antibody	–	–	22	69
Variant 26734 (A_P271W_strat2), one-armed trastuzumab antibody with heterodimeric IgG1 Fc	28	72	–	–
Variant 26717 (A_D270W_strat2), one-armed trastuzumab antibody	–	–	27	83
Variant 26722 (A_D270N_strat2), one-armed trastuzumab antibody with heterodimeric IgG1 Fc	21	77	–	–
Variant 26713 (A_D270V_strat2), one-armed trastuzumab antibody	–	–	41	89
Variant 26740 (A_P271D_strat2), one-armed trastuzumab antibody with heterodimeric IgG1 Fc	29	–	–	–
Variant 26712 (A_D270A_strat2), one-armed trastuzumab antibody	–	–	29	80
Variant 26705 (A_E269N_strat2), one-armed trastuzumab antibody	–	–	26	83
